Literature values as cited in article PMC6557900.

Biological target: GHR pY487 pY487 region (Homo sapiens) (UniProt P10912)
Sequence (P10912 whole entry, looked up): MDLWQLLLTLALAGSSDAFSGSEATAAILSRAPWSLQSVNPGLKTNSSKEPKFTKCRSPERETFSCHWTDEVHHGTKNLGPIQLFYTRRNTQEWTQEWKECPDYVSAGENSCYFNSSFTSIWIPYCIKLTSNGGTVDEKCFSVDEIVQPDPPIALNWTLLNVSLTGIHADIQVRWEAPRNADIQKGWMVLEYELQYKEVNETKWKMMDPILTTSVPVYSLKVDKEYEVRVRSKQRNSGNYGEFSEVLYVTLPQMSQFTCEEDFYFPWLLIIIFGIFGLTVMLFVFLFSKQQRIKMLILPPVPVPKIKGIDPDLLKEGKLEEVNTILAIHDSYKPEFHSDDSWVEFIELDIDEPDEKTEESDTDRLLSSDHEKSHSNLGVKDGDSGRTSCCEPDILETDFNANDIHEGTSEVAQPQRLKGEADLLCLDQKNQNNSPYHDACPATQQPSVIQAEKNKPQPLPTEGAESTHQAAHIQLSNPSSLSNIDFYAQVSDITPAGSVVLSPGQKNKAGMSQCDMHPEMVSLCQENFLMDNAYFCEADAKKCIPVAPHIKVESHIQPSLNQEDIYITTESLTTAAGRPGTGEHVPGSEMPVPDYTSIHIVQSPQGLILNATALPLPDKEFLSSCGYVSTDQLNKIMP

Chain of SOCS2 (O14508 whole entry): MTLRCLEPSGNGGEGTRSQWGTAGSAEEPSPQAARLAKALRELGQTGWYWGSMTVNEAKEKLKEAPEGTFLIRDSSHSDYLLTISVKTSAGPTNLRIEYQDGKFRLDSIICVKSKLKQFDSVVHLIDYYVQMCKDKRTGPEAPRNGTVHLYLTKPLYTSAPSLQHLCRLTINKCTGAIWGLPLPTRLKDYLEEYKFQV

- Kd: 11.3 µM
Substance: SOCS2 (from UniProt O14508)
